Key:
[1] = molecular target: T1, human IL-34 (human, UniProt Q6ZMJ4 21-242); assay: cell-based or functional assay
T1 sequence: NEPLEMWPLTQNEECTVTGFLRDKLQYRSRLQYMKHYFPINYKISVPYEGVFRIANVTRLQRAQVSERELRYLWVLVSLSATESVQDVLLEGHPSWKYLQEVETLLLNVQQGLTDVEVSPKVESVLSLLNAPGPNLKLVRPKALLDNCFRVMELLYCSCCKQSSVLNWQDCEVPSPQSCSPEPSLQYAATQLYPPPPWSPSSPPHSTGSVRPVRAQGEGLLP

[2] = molecular target: T1, human IL-34; assay: SPR BIAcore 8K, 37 C, antibody captured on Protein A chip, IL-34 in solution
Experimental: (§1) Binding affinity of anti-IL-34 monoclonal antibodies of the present disclosure to human and/or cynomolgus monkey (cyno) IL-34 may be determined by methods known in the art. Briefly, the binding affinity and kinetics of the antibody are evaluated by surface plasmon resonance using BIAcore™ 8K (Cytiva) at 37° C. […] For each cycle, 200 μL IL-34 is flowed over the immobilized antibody at 100 μL/minute, and then dissociated for 20 minutes. The chip surface is regenerated with 50 μL of glycine buffer at pH 1.5 at a flow rate of 100 μL/minute. The data are fit to a 1:1 Langmiur binding mode to derive kon, koff and to calculate KD.

[3] = molecular target: T2, cynomolgus monkey IL-34 (cynomolgus monkey, UniProt G7Q1L3 21-242); assay: as above
T2 construct: It was biotinylated in the CSF1R displacement ELISA; also called cyno IL-34
T2 sequence: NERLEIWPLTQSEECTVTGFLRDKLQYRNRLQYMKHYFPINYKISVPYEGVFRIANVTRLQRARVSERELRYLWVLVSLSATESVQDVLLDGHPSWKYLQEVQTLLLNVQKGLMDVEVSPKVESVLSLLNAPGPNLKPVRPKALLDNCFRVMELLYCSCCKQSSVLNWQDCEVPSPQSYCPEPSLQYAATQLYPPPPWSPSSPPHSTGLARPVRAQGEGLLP
Experimental: as §1

[4] = molecular target: T1, human IL-34; assay: competition ELISA, displacement of biotinylated human IL-34 from coated hCSF1R_Fc
Experimental: (§2) CSF1R extracellular domain proteins (hCSF1R_Fc commercially available from R&D Cat #329-MR, cynomolgus CSF1R ECD-Fc (AAA is a linker between CSF1R extracellular domain and Fc) (SEQ ID NO: 34)) can be bound to an ELISA plate at concentrations of 30 nM in order to capture soluble biotinylated IL-34 and allowed to bind for one hour. After washing and blocking plate, biotinylated IL-34 may be added, then detected via streptavidin conjugated peroxidase. Concentrations of labeled IL-34 near the 80% binding level (EC₈₀) (3.7 nM) may be used in conjunction with a range of antibody concentrations (0-100 nM) to determine concentration of antibody required to displace IL-34 from CSF1R. After 1 hr incubation, IL-34 bound to CSF1R is detected via streptavidin conjugated peroxidase. The antibodies are assayed (n=2) and the average and standard deviation at each concentration are calculated. The potency of an antibody to displace IL-34 from CSF1R is reported as IC₅₀ (nM) with the calculated confidence interval (CI) in Table 4 and Table 5.

[5] = molecular target: T2, cynomolgus monkey IL-34; assay: competition ELISA, displacement of biotinylated cyno IL-34 from coated cyno CSF1R ECD-Fc
Experimental: as §2

- IC50 (ug/ml), neutralization of human IL-34 induced luciferase reporter activity [1]: 0.0531 µg/mL
- Kd [2]: 0.0312 nM
- koff [2]: 0.00026 s⁻¹
- kon [2]: 8.4e+06 M⁻¹ s⁻¹
- Kd [3]: 0.0409 nM
- koff [3]: 0.0003 s⁻¹
- kon [3]: 7.9e+06 M⁻¹ s⁻¹
- IC50 [4]: 0.0274 nM
- IC50 [5]: 0.975 nM
B1: Antibody 1 (antibody, human IgG4 S228P, kappa, F234A L235A, V domains shown)
VH: EVQLLESGGGLVQPGGSLRLSCAASGFAFSSYRMSWVRQAPGKGLEWVSAISASGGKTYYADSVKGRFTISRDNSKNTLYLQMNSLRAEDTAVYYCAKRGYIWHAFDLWGRGTLVTVSS
VL: EIVLTQSPGTLSLSPGERATLSCRASQSVYSSYLAWYQQKPGQAPRLLIYGASSRATGIPDRFSGSGSGTDFTLTISRLEPEDFAVYYCQVVGSSPPFTFGGGTKVEIKR
notes: Human anti-IL-34 antibody with IgG4 PAA hinge/Fc and kappa light chain; also called Exemplified Antibody 1; exemplified antibody 1

— US20260132190A1 (Eli Lilly, published 2026)
